This is an account of results in US20240384288A1, “COUMARIN TRANSPORTERS AND USES THEREOF” (BASF PLANT SCIENCE COMPANY GMBH, priority 2021, published 2024).

The test deals with leaves of N. benthamiana plants. Put plainly: Transient expression of coumarin transporter in N. benthamiana leaves, coumarins in leaf wash water / leaves by HPLC. The test is classed as in vivo. Here is the method: Droplets of double-distilled water (30 μl) were evenly distributed on the surface of detached leaves placed in a petri dish (approx. 40 droplets on sunflower, 20 droplets on N. benthamiana). Samples were kept at RT for 24 h at high humidity. Subsequently, droplets were carefully collected without touching the leaf surface, filtered and used for HPLC analysis or germination assays.
For transient in planta overexpression assays cDNA sequences of GOIs were cloned in the plant overexpression vector pB7WG2D13 using the Gateway® cloning technology. Similar cloning steps are performed to generate transient in-planta overexpression constructs for any of the other coumarin transporter proteins A0A251U1Q8_HELAN, A0A5N6LHL1_9ASTR, A0A 1I9L1U9_ARTAN, A0A2J6KQ56_LACSA and A0A2G2ZJV1_CAPAN with A0A1S3XDP1_TOBAC as control. […]
Coumarin methanol extracts were centrifuged for 10 min at 21,000 rcf and 70 μl of the supernatant were separated via HPLC on a reverse phase C18 column (KROMAPLUS 100-5-C18 5.0, Prontosil). ddH2O and acetonitrile, both containing 1.5% (v/v) acetic acid, were used as solvents. […] Coumarin fluorescence was detected at λ=335 nm excitation and λ=460 nm emission (FP 920 Intelligent Fluorescence Detector, Jasco) or at λ=342 nm (UV absorbance). […] For quantification, a standard curve of commercial standards with known concentrations was measured.

B1: AtPDR9: already published Arabidopsis thaliana coumarin transporter, used as control (protein, UniProt Q9LFH0 1-1450, looked up)
ABC transporter G family …: MAHMVGADDIESLRVELAEIGRSIRSSFRRHTSSFRSSSSIYEVENDGDVNDHDAEYALQWAEIERLPTVKRMRSTLLDDGDESMTEKGRRVVDVTKLGAVERHLMIEKLIKHIENDNLKLLKKIRRRIDRVGMELPTIEVRYESLKVVAECEVVEGKALPTLWNTAKRVLSELVKLTGAKTHEAKINIINDVNGIIKPGRLTLLLGPPSCGKTTLLKALSGNLENNLKCSGEISYNGHRLDEFVPQKTSAYISQYDLHIAEMTVRETVDFSARCQGVGSRTDIMMEVSKREKEKGIIPDTEVDAYMKAISVEGLQRSLQTDYILKILGLDICAEILIGDVMRRGISGGQKKRLTTAEMIVGPTKALFMDEITNGLDSSTAFQIVKSLQQFAHISSATVLVSLLQPAPESYDLFDDIMLMAKGRIVYHGPRGEVLNFFEDCGFRCPERKGVADFLQEVISKKDQAQYWWHEDLPYSFVSVEMLSKKFKDLSIGKKIEDTLSKPYDRSKSHKDALSFSVYSLPNWELFIACISREYLLMKRNYFVYIFKTAQLVMAAFITMTVFIRTRMGIDIIHGNSYMSALFFALIILLVDGFPELSMTAQRLAVFYKQKQLCFYPAWAYAIPATVLKVPLSFFESLVWTCLSYYVIGYTPEASRFFKQFILLFAVHFTSISMFRCLAAIFQTVVASITAGSFGILFTFVFAGFVIPPPSMPAWLKWGFWANPLSYGEIGLSVNEFLAPRWNQMQPNNFTLGRTILQTRGMDYNGYMYWVSLCALLGFTVLFNIIFTLALTFLKSPTSSRAMISQDKLSELQGTEKSTEDSSVRKKTTDSPVKTEEEDKMVLPFKPLTVTFQDLNYFVDMPVEMRDQGYDQKKLQLLSDITGAFRPGILTALMGVSGAGKTTLLDVLAGRKTSGYIEGDIRISGFPKVQETFARVSGYCEQTDIHSPNITVEESVIYSAWLRLAPEIDATTKTKFVKQVLETIELDEIKDSLVGVTGVSGLSTEQRKRLTIAVELVANPSIIFMDEPTTGLDARAAAIVMRAVKNVADTGRTIVCTIHQPSIDIFEAFDELVLLKRGGRMIYTGPLGQHSRHIIEYFESVPEIPKIKDNHNPATWMLDVSSQSVEIELGVDFAKIYHDSALYKRNSELVKQLSQPDSGSSDIQFKRTFAQSWWGQFKSILWKMNLSYWRSPSYNLMRMMHTLVSSLIFGALFWKQGQNLDTQQSMFTVFGAIYGLVLFLGINNCASALQYFETERNVMYRERFAGMYSATAYALGQVVTEIPYIFIQAAEFVIVTYPMIGFYPSAYKVFWSLYSMFCSLLTFNYLAMFLVSITPNFMVAAILQSLFYVGFNLFSGFLIPQTQVPGWWIWLYYLTPTSWTLNGFISSQYGDIHEEINVFGQSTTVARFLKDYFGFHHDLLAVTAVVQIAFPIALASMFAFFVGKLNFQRR
In the case of B1, the “Scopoletin content in leaf wash water (LWW)” value (transporter transiently coexpressed with F6'H1, versus biosynthesis gene without transporter) is reported as “no increased coumarin secretion”. Also, the “Scoparone content in leaf wash water (LWW)” value (transporter transiently coexpressed with F6'H1 plus OMT3, versus biosynthesis genes without transporter) is listed as “no increased coumarin secretion”.
